Test results as given in patent US20210221894A1 (DRAGONFLY THERAPEUTICS, published 2021).

Legend:
[1] = target: T1, recombinant His-tagged EGF4-6 domains of human DLL3 (human, UniProt Q9NYJ7 353-492, limits assumed); assay: SPR (Biacore 8K), 37 C, antibody captured on anti-mouse Fc, DLL3 domain construct injected, 1:1 fit
T1 sequence: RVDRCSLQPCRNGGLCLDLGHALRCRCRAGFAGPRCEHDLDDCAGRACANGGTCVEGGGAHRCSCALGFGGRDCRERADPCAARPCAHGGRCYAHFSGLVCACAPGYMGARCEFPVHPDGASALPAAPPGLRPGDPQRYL
Excerpt: (§1) The binding kinetics of different anti-DLL3 antibodies to recombinant proteins of different domains of human DLL3 were studied by surface plasmon resonance (SPR) using a Biacore™ 8K instrument. These anti-DLL3 antibodies were produced from mouse hybridomas, and each included a heavy chain variable region and light chain variable region described herein. Briefly, antibodies recognizing human IgG Fc and antibodies recognizing mouse IgG Fc were immobilized on different channels of a Biacore™ 8K chip to allow simultaneous analysis of human and murine anti-DLL3 antibodies. Murine anti-DLL3 antibodies were captured on the anti-mouse Fc channel of the Biacore chip. The human anti-DLL3 antibody from Stemcentrx (San Francisco, Calif.) was used as a control and was captured onto anti-human Fc channel of the Biacore™ chip. Different concentrations of DLL3 ECD, DLL3 N-terminal domain, EGF2-6, EGF3-6, EGF4-6, or EGF5-6 domains of DLL3 were injected. Experiments were performed at 37° C. Biacore™ 8K evaluation software was used for all data analysis. To obtain kinetic rate constants double-referenced data were fit to a 1:1 interaction model using Biacore™ 8K Evaluation software (GE Healthcare, Marlborough, Mass.). The equilibrium binding constant KD was determined by the ratio of binding rate constants kd/kₐ.
(§2) The binding epitope on DLL3 by the anti-DLL3 antibody which included a heavy chain variable region and light chain variable region of clone 5E7 (see Table 2) was identified by SPR analysis at 37° C.

[2] = target: T2, recombinant His-tagged EGF2-6 domains of human DLL3 (human, UniProt Q9NYJ7 274-492, limits assumed); assay: as above
T2 sequence: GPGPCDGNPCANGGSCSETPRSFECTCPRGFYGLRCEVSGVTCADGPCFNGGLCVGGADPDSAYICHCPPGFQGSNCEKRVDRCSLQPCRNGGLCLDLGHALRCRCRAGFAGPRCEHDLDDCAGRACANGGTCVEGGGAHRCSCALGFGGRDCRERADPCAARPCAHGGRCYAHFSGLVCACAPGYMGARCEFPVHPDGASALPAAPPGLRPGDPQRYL
Excerpt: as §1, §2

[3] = target: T3, recombinant His-tagged EGF3-6 domains of human DLL3 (human, UniProt Q9NYJ7 312-492, limits assumed); assay: as above
T3 sequence: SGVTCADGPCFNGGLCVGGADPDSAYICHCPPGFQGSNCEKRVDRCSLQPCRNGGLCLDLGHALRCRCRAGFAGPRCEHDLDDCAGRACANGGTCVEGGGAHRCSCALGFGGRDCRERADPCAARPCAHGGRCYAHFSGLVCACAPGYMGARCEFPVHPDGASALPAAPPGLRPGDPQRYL
Excerpt: as §1, §2

recombinant human DLL1 = target: T4, recombinant human DLL1 (human, UniProt O00548 18-540, limits assumed); assay: ELISA, plate-bound recombinant human DLL1 (1 µg/mL), anti-mouse IgG-HRP/TMB, % of positive control max
T4 sequence (looked up): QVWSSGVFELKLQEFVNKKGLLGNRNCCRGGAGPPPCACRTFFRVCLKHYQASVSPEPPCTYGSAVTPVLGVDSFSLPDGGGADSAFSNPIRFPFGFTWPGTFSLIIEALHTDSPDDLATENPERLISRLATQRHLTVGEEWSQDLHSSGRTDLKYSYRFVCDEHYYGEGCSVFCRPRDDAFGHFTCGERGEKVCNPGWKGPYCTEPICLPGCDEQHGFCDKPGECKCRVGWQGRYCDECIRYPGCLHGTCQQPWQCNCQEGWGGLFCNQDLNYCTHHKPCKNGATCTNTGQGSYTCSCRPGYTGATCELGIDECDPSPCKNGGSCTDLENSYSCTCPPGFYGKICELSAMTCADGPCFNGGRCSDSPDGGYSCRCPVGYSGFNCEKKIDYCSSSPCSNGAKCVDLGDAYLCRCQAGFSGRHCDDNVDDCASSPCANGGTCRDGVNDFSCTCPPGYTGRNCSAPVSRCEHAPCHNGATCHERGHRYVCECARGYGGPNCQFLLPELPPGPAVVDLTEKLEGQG
Summary of the method: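 Binding read by anti-mouse IgG-HRP with TMB substrate against wells coated with recombinant human DLL1 (1 μg/ml) or DLL4 (0.5 μg/ml) to test cross-reactivity of anti-DLL3 antibodies. Signals normalized to the corresponding positive control antibody.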

[4] = target: T5, recombinant human DLL3 (ELISA coat) (human, UniProt Q9NYJ7 27-492); assay: ELISA, plate coated with recombinant human DLL3 0.5 µg/ml, anti-mouse IgG-HRP
T5 sequence: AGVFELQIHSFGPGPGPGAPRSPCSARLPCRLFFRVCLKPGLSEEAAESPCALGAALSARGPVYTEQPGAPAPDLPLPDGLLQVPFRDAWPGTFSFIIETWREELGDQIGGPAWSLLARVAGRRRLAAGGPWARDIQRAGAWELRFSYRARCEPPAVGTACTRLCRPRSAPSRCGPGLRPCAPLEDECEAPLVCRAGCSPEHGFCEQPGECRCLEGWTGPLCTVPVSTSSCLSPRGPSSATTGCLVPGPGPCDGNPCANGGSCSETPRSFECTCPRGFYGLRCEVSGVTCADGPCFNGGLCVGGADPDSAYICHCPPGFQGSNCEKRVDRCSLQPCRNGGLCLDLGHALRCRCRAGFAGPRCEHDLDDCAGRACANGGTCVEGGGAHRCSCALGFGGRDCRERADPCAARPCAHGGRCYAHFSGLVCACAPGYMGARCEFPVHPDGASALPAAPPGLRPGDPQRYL
Summary of the method: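 Antibody binding measured on plates coated with recombinant human DLL3 at 0.5 μg/ml, detected with anti-mouse IgG-HRP and TMB substrate. Signals normalized to the matching positive control antibody; EC₅₀ calculated from binding curves.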

B1: murine anti-DLL3 antibody clone 5E7 (antibody, V domains shown)
VH: EVQLQQSGAELVRPGASVKLSCTASGFNIKDDYIHWVKQWPEQGLEWIGWIDSENGDTEYASKFQGKATMTADTSSNTAYLQLSGLTSEDTAVYYCTTSSYYSYDLFVYWGQGTLVTVSA
VL: DVLMTQTPLTLSVPIGQPASISCKSSQSLLHSNGKTYLNWLLQRPGQSPKLLIYLVSKLESGVPDRFSGSGSGTDFTLKISRVEAEDLGVYYCLQTTHLYTFGGGTKLEIK
notes: Murine antibody produced from a mouse hybridoma, captured on anti-mouse Fc in SPR; also called m5E7; murine 5E7
B1 was tested, and the Kd [1] was 1.12 nM, the koff [1] was 0.00061 s⁻¹ and the kon [1] was 546000 M⁻¹ s⁻¹. For the same binder, the Kd [2] was 0.669 nM, the koff [2] was 0.000382 s⁻¹ and the kon [2] was 570000 M⁻¹ s⁻¹. It also gave a Kd [3] of 0.184 nM, a koff [3] of 0.000264 s⁻¹ and a kon [3] of 1.45e+06 M⁻¹ s⁻¹. The binding result (recombinant human DLL1) was “no binding” and the EC50 [4] was 0.07 nM.
